Measurements: US20130089536

Molecular target: Aβ1-40 peptide (UniProt P05067)

hGCP II (wild type human glutamate carboxypeptidase II expressed from cDNA in cells)
Aβ1-40 cleavage in primary rat astrocytes (Aβ1-40 in growth medium by ELISA): 2-PMPA did not block A1-40 cleavage of lentiviral GCP II
